B3: Human papillomavirus 16 L2 (other)
chain: MRHKRSAKRTKRASATQLYKTCKQAGTCPPDIIPKVEGKTIAVQILQYGSMGVFFGGLGIGTGSGTGGRTGYIPLGTRPPTATDTLAPVRPPLTVDPVGPSDPSIVSLVEETSFIDAGAPTSVPSIPPDVSGFSITTSTDTTPAILDINNTVTTVTTHNNPTFTDPSVLQPPTPAETGGHFTLSSSTISTHNYEEIPMDTFIVSTNPNTVTSSTPIPGSRPVARLGLYSRTTQQVKVVDPAFVTTPTKLITYDNPAYEGIDVDNTLYFSSNDNSINIAPDPDFLDIVALHRPALTSRRTGIRYSRIGNKQTLRTRSGKSIGAKVHYYYDLSTIDPAEEIELQTITPSTYTTTSHAASPTSINNGLYDIYADDFITDTSTTPVPSVPSTSLSGYIPANTTIPFGGAYNIPLVSGPDIPINITDQAPSLIPIVPGSPQYTIIADAGDFYLHPSYYMLRKRRKRLPYFFSDVSLAA
notes: also called HPV 16 L2; cbe_251737

How the values were obtained:
[1] = molecular target: B3; test: Y2H; INT ID 188
[2] = molecular target: T1, Human papillomavirus 16 L1 (Human papillomavirus 16, UniProt P03101 1-505); test: Y2H; INT ID 197
T1 construct: also called HPV 16 L1; cbe_251784
T1 sequence: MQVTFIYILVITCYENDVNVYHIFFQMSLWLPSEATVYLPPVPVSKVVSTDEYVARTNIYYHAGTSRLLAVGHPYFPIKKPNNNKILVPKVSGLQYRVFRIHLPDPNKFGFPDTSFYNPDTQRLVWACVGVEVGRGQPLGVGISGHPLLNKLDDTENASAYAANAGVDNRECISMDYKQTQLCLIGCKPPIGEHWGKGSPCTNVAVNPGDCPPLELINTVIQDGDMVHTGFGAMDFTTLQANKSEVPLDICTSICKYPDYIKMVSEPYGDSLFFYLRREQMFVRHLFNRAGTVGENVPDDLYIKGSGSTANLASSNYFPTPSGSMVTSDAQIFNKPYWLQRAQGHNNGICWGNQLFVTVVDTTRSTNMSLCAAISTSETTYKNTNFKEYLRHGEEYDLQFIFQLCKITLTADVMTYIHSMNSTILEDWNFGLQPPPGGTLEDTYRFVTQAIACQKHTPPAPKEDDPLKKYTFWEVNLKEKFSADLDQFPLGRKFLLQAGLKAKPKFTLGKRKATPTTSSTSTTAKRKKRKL

KIAA1389 protein = molecular target: T2, KIAA1389 protein (human, UniProt Q9P2F8 219-1722); test: Y2H; INT ID 187
T2 construct: also called cbe_3663966

gbh_al121903 = molecular target: T3, gbh_al121903 (human, UniProt Q9Y6D5 1145-1785); test: Y2H; INT ID 185
T3 construct: also called cbe_3473488
T3 sequence: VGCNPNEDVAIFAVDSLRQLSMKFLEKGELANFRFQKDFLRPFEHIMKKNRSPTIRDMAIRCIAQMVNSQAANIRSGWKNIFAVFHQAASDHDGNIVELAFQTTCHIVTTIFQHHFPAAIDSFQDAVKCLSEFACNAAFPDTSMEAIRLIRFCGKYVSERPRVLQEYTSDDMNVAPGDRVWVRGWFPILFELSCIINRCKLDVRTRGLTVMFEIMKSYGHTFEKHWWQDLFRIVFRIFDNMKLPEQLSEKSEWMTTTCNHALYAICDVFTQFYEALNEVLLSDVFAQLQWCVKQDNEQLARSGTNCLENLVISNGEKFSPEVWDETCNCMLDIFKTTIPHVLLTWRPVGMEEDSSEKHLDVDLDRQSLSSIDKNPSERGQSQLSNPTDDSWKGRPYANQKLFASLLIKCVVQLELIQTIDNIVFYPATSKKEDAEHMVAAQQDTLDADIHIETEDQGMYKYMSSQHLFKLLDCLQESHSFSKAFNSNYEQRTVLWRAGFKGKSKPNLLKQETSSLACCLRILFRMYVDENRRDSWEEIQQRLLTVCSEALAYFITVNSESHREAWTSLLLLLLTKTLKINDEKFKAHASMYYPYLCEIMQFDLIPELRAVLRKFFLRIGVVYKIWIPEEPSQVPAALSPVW

[3] = molecular target: T4, signal-induced proliferation-associated 1 like 1 (human, UniProt O43166 1-1804); test: Y2H; INT ID 184
T4 construct: also called KIAA0440; cbe_3056756

[4] = molecular target: T5, Human Papillomavirus 1a E2 (Human Papillomavirus 1a, UniProt P03118 1-401); test: Y2H; INT ID 383
T5 construct: also called HPV 1a E2; cbe_251917
T5 sequence: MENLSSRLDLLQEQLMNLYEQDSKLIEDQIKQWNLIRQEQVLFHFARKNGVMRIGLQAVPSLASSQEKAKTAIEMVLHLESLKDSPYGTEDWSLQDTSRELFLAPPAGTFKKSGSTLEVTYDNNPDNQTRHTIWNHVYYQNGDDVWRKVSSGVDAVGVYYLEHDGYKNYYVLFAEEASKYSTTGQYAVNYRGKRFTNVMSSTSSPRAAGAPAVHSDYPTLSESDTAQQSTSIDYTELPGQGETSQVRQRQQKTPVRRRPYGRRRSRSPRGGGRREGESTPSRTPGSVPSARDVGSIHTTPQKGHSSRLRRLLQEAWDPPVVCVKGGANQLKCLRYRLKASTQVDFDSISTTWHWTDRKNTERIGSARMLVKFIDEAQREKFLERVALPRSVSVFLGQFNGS

[5] = molecular target: T5, Human Papillomavirus 1a E2; test: Y2H; INT ID 415
[6] = molecular target: T5, Human Papillomavirus 1a E2; test: Y2H; INT ID 416
[7] = molecular target: T1, Human papillomavirus 16 L1; test: Y2H; INT ID 196
[8] = molecular target: T5, Human Papillomavirus 1a E2; test: Y2H; INT ID 410
[9] = molecular target: B3; test: Y2H; INT ID 191
[10] = molecular target: B3; test: Y2H; INT ID 189

T2 sequence (Q9P2F8 other isoform, or with tags, fused parts or gaps limits assumed): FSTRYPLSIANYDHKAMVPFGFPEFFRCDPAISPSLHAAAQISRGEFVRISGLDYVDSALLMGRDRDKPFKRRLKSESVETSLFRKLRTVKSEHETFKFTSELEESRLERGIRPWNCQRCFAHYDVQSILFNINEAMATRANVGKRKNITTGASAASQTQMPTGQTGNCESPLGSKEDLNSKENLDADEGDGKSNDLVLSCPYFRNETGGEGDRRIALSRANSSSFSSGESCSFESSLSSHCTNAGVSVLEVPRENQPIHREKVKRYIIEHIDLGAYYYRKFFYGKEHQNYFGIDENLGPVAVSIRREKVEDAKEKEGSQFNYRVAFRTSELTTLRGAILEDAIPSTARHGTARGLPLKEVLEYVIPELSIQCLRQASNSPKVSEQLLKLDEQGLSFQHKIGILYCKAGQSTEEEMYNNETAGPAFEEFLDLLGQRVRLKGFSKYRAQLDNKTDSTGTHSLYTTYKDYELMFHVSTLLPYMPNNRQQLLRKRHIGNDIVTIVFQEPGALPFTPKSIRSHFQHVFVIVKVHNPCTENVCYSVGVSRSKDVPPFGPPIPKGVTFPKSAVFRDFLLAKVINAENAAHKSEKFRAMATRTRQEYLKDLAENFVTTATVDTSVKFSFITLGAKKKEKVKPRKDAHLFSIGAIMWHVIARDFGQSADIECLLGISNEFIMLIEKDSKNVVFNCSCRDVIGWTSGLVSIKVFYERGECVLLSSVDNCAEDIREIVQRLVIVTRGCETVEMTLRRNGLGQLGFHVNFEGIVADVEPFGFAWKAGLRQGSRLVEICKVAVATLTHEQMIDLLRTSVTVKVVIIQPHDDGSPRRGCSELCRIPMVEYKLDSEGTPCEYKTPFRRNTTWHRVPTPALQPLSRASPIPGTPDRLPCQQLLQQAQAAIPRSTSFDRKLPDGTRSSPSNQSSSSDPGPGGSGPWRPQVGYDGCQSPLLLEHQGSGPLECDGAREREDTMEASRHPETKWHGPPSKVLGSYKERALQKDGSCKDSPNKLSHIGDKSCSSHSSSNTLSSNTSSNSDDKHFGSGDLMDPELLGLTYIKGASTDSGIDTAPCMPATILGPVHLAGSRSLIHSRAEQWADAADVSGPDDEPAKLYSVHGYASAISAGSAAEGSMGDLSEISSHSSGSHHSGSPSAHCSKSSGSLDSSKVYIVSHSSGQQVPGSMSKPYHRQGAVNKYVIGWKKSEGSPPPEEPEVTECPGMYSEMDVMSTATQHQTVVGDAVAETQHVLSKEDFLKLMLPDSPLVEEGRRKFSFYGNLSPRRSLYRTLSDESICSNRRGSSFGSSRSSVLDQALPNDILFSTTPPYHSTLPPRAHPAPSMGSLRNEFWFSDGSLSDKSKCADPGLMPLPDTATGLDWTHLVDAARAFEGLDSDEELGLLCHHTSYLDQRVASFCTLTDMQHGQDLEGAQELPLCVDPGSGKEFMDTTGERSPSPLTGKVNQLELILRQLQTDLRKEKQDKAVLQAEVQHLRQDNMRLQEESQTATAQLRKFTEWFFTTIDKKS
T4 sequence (O43166 whole entry): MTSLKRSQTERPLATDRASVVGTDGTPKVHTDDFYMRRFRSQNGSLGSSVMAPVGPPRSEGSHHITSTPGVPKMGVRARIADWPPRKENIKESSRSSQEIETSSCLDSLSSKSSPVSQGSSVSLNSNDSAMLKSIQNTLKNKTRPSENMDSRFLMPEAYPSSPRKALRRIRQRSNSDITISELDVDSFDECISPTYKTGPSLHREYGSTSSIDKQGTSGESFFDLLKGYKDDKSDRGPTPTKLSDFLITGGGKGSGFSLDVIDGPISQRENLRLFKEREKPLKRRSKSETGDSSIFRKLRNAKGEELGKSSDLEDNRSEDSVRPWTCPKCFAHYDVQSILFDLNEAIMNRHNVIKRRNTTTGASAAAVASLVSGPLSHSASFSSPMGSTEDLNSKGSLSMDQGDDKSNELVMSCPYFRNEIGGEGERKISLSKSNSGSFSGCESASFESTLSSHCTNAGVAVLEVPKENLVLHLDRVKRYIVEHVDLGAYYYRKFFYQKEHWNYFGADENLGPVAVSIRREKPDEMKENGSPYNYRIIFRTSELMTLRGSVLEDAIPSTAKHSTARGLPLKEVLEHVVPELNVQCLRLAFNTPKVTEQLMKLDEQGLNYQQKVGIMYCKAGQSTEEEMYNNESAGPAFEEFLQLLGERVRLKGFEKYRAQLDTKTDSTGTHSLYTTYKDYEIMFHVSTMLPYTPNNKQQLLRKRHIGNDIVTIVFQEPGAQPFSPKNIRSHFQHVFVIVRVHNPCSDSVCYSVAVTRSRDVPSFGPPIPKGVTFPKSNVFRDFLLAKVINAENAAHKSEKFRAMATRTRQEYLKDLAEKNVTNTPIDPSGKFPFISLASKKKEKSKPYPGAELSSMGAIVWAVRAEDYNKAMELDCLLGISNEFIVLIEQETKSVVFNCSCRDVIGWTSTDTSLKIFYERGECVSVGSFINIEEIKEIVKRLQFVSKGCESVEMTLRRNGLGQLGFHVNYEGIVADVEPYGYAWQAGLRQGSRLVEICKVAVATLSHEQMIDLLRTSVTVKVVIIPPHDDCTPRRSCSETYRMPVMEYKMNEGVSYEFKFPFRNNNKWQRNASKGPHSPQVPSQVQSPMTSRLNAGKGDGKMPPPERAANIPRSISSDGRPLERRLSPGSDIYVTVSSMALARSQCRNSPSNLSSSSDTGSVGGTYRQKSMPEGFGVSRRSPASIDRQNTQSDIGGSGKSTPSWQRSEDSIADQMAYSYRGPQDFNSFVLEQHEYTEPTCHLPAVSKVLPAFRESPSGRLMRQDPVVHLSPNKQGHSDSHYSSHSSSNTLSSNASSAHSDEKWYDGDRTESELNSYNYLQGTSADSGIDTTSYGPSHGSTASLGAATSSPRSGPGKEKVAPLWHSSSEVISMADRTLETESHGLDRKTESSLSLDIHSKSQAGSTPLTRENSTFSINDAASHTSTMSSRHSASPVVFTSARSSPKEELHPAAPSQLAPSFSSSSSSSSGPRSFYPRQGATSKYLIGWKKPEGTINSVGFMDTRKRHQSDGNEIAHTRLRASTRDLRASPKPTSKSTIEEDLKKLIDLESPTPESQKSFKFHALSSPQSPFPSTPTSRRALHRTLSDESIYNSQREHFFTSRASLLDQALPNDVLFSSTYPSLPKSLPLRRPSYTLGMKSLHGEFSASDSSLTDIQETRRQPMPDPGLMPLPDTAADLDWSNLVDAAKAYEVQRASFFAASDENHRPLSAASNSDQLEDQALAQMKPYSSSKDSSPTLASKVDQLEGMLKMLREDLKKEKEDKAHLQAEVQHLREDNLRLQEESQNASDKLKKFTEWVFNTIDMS

B1: chemokine-like factor 1 (other)
chain: MDNVQPKIKHRPFCFSVKGHVKMLRLALTVTSMTFFIIAQAPEPYIVITGFEVTVILFFILLYVLRLDRLMKWLFWPLLDIINSLVTTVFMLIVSVLALIPETTTLTVGGGVFALVTAVCCLADGALIYRKLLFNPSGPYQKKPVHEKKEVL
notes: also called HSPC224; CKLF1
B1: binds [1].

B2: crystallin, alpha B (other)
chain: MDIAIHHPWIRRPFFPFHSPSRLFDQFFGEHLLESDLFPTSTSLSPFYLRPPSFLRAPSWFDTGLSEMRLEKDRFSVNLDVKHFSPEELKVKVLGDVIEVHGKHEERQDEHGFISREFHRKYRIPADVDPLTITSSLSSDGVLTVNGPRKQVSGPERTIPITREEKPAVTAAPKK
notes: also called CRYAB; cbe_4281271
B2: binds [2].

B3: binds (KIAA1389 protein); binds (gbh_al121903); binds [3].

B4: low molecular mass ubiquinone-binding protein (9.5 kD) (other)
chain: MGREFGNLTRMRHVISYSLSPFEQRAYPHVFTKGIPNVLRRIRESFFRVVPQFVVFYLIYTWGTEEFERSKRRIQLPMKMTNEQRIRMTVPCL
notes: also called QP-C; cbe_1710
B4: binds [4].

B5: hypothetical protein MGC3222 (other)
chain: VVSPDSIHSVAPENEGRLVHIIGALRTSKLLSDPNYGVHLPAVKLRRHVEMYQWVETEESREYTEDGQVKKETRYSYNTEWRSEIINSKNFDREIGHNNPSAMAVESFTATAPFVQIGRFFLSSGLIDKVDNFKSLSLSKLEDPHVDIIRRGDFFYHSENPKYPEVGDLRVSFSYAGLSGDDPDLGPAHVVTVIARQRGDQLVPFSTKSGDTLLLLHHGDFSAEVSAVPYSYGGGTSMSFLPSSGYLIRSHYQGS
notes: also called cbe_3583511
B5: binds [5].

B6: eukaryotic translation initiation factor 2B, subunit 2 beta, 39 kDa (other)
chain: MPGSAAKGSELSERIESFVETLKRGGGPRSSEEMARETLGLLRQIITDHRWSNAGELMELIRREGRRMTAAQPSETTVGNMVRRVLKIIREEYGRLHGRSDESDQQESLHKLLTSGGLNEDFSFHYAQLQSNIIEAINELLVELEGTMENIAAQALEHIHSNEVIMTIGFSRTVEAFLKEAARKRKFHVIVAECAPFCQGHEMAVNLSKAGIETTVMTDAAIFAVMSRVNKVIIGTKTILANGALRAVTGTHTLALAAKHHSTPLIVCAPMFKLSPQFPNEEDSFHKFVAPEEVLPFTEGDILEKVSVHCPVFDYVPPELITLFISNIGGNAPSYIYRLMSELYHPDDHVL
notes: also called EIF2B2; cbe_3625721
B6: binds [6].

B7: HCDI protein (other)
chain: MGWRRKRVPQRGRKAPPPQLHGNINNLYFPIRWRDRLHWDSPNPAAECQRHEVTLVSRKPGPGRITWDELAASGLPSCDAAVNLAGENILNPLRRWNETFQKEVLGSRLETTQLLAKAITKAPQPPKAWVLVTGVAYYQPSLTAEYDEDSPGGDFDFFSNLVTKWEAAARLPGDSTRQVVVRSGVVLGRGGGAMGHMLLPFRLGLGGPIGSGHQFFPWIHIGDLAGILTHALEANHVHGVLNGVAPSSATNAEFAQTLGAALGRRAFIPLPSAVVQAVFGRQRAIMLLEGQKVIPQRTLATGYQYSFPELGAALKEIVA
notes: also called cbe_1505425
B7: binds [7].

B8: Prey2777 (other)
chain: MNPVPHWGEVFLLVGGEGEHLASQGTTPARDHRVGISPASQQAQPESWRRRQRDKGVDPEKAPSLTRQSQNPPSLTAPLGMPSACSCLPCGPAPEAAIILAGPPTALTVLPKGTGLKKSKRLLLESLMRRRIAHLKWGLPRRILESYFLFNFLGSCSLTLAGARLSGLNTGQELQAQQERYCEAQGSPPGLKSPERFQRVQRPDRKSSKLPIQARALERNRPHMSEPIKHFHPA
notes: also called FLJ23584; hypothetical protein FLJ23584
B8: binds [8].

B9: KIAA0276 (other)
chain: MHSDAAAVNFQLNSHLSTLANIHKIYHTLNKLNLTEDIGQDDHQTGSLRSCSSSDCFNKVMPPRKKRRPASGDDLSAKKSRHDSMYRKYDSTRIKTEEEAFSSKRCLEWFYEYAGTDDVVGPEGMEKFCEDIGVEPENVVMLVLAWKLDAQNMGYFTLQEWLKGMTSLQCDTTEKLRNTLDYLRSFLNDSTNFKLIYRYAFDFAREKDQRSLDINTAKCMLGLLLGKIWPLFPVFHQFLEQSKYKVINKDQWCNVLEFSRTINLDLSNYDEDGAWPVLLDEFVEWYKDKQMS
notes: also called cbe_4270335
B9: binds [9].

B10: Rab coupling protein (other)
chain: MSLMVSAGRGLGAVWSPTHVQVTVLQARGLRAKGPGGTSDAYAVIQVGKEKYATSVSERSLGAPVWREEATFELPSLLSSGPAAAATLQLTVLHRALLGLDKFLGRAEVDLRDLHRDQGRRKTQWYKLKSKPGKKDKERGEIEVDIQFMRNNMTASMFDLSMKDKSRNPFGKLKDKIKGKNKDSGSDTASAIIPSTTPSVDSDDESVVKDKKKKSKIKTLLSKSNLQKTPLSQSMSVLPTSKPEKVLLRPGDFQSQWDEDDNEDESSSASDVMSHKRTASTDLKQLNQVNFTLPKKEGLSFLGGLRSKNDVLSRSNVCINGNHVYLEQPQPTGEIKDSSPSSSPSPKGFRKKTLFSSTENLAAGSWKEPAEGGGLSTDRDVSESSTKDSLKSMTLPTYRPAPLISGDLREKMAPANSEATKEAKESKKPESRRSSLLSLMTGKKDVAKGSEGENLLTVPGREKEGMLMGVKPGEDASGPAEDLVRRSEKDTAAVVSRQGSSLNLFEDVQITEPEAEPESKSEPRPPISSPRAPQTRAVKPRLHPVKPMNATATKVANCSLGTATIISENLNNEVMMKKYSPSDPAFAYAQLTHDELIQLVLKQKETISKKEFQVRELEDYIDNLLVRVMEETPNILRIPTQVGKKAGKM
notes: also called Hs.30289; RCP
B10: binds [10].

— US20050100554A1 (published 2005)
